Source: US20200392227A1 (LYVGEN BIOPHARMA, published 2020)
Like-named read-outs stand apart in the source and are kept apart here.

T1: human FcRIIA protein (MednaBio, E1033) (human, UniProt P12318 34-218, limits assumed)
T1 construct: Bought; also called FcγRIIA
T1 sequence (looked up): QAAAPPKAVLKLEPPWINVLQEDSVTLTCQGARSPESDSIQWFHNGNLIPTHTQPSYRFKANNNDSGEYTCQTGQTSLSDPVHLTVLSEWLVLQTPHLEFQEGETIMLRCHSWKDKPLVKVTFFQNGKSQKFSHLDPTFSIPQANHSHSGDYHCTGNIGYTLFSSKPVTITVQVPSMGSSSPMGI

T2: human FcRIIB/C protein (MednaBio, E1034) (human, UniProt P31994 43-217, limits assumed)
T2 construct: Bought as FcRIIB/C; also called FcγRIIB; CD32B
T2 sequence (looked up): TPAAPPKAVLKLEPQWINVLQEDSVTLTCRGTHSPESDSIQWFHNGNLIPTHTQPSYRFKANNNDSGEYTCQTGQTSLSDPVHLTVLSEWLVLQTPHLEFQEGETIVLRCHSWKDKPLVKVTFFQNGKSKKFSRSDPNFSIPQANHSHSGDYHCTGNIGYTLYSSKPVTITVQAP

T3: human FcγRIIC expressed on CHO cells (human, UniProt P31995 43-323)
T3 construct: whole, on cells
T3 sequence (looked up): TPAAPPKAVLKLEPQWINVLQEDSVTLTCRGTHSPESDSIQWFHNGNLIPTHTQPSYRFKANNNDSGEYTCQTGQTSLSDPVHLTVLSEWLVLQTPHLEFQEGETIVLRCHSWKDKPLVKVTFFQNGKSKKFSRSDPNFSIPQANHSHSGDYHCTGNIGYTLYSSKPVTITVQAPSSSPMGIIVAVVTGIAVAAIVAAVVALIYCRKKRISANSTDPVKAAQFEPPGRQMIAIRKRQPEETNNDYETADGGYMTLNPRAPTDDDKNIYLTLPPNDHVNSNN


Columns and labels:
[1] = target: T4, human FcRI protein (MednaBio, E1031) (human, UniProt P12314 16-288, limits assumed); assay: BLI
T4 construct: Bought; loaded on anti-penta-HIS biosensors; also called FcγRI
Summary of the method: (§1)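 Binding was measured by biolayer interferometry on an Octet Red96 System, with commercial human Fc receptor proteins loaded at 20 μg/mL onto anti-penta-HIS biosensors. Sensors were dipped into an 8-point 1:3 dilution series of test IgG starting at 300 nM in PBS with 0.1% BSA and 0.02% Tween-20. Fcγ receptor assays ran at pH 7.2 and FcRn assays at pH 6. Kd, kon and koff came from global fitting to a 1:1 binding model.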

[2] = target: T1, human FcRIIA protein (MednaBio, E1033); assay: BLI
Summary of the method: as §1

[3] = target: T2, human FcRIIB/C protein (MednaBio, E1034); assay: BLI
Summary of the method: as §1

[4] = target: T5, human FcRn protein (MednaBio, E1032) (human, UniProt P55899 24-297; P61769 21-119); assay: BLI
T5 construct: Bought; assays at pH 6
Summary of the method: as §1

[5] = target: T3, human FcγRIIC expressed on CHO cells; assay: FACS, CHO cells expressing FcγRIIC
Procedure: For FACS analysis of the IgG mutants' binding to different FcγRs, FcγR overexpressing CHO cells were harvested using trypsin-EDTA and were suspended in cold staining buffer (3% BSA in PBS). Test IgG mutants, which were diluted in staining buffer, were added into the cells. The mixture was incubated 4° C. for 2 hours, and then washed twice with cold staining buffer and re-suspended in PE-labeled anti-human IgG followed by incubation at 4° C. for 2 hours. The mixture was washed twice with staining buffer and re-suspended in 2% PFA in PBS for FACS.

[6] = target: T4, human FcRI protein (MednaBio, E1031); assay: BLI; remark: listed apart in the source
Summary of the method: as §1

[7] = target: T1, human FcRIIA protein (MednaBio, E1033); assay: BLI; remark: listed apart in the source
Summary of the method: as §1

[8] = target: T2, human FcRIIB/C protein (MednaBio, E1034); assay: BLI; remark: listed apart in the source
Summary of the method: as §1

[9] = target: T6, human FcRIIIA-F158 protein (MednaBio, E1036) (human, UniProt P08637 17-208); assay: BLI
T6 construct: Bought; also called FcγRIIIA(F)
Summary of the method: as §1

[10] = target: T7, human FcRIIIA-V158 protein (MednaBio, E1035) (human, UniProt P08637 17-208); assay: BLI
T7 construct: Bought; also called FcγRIIIA(V); FcgRIIIA(V)
Summary of the method: as §1

[11] = target: T8, human FcRIIIB protein (MednaBio, E1037) (human, UniProt O75015 17-200); assay: BLI
T8 construct: Bought; also called FcγRIIIB; FcgRIIIB
Summary of the method: as §1

[12] = target: T5, human FcRn protein (MednaBio, E1032); assay: BLI; remark: listed apart in the source
Summary of the method: as §1

[13] = target: T9, human FcγRI expressed on CHO cells (human, UniProt P12314 16-374); assay: FACS, CHO cells expressing FcγRI
T9 construct: whole, on cells
Summary of the method: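 Trypsin-harvested CHO cells overexpressing each FcγR were incubated 2 h at 4 °C with IgG mutants in 3% BSA/PBS. Bound IgG was detected with PE-labeled anti-human IgG (2 h, 4 °C), then cells were fixed in 2% PFA and analysed by flow cytometry.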

T8 sequence (O75015 17-200 limits assumed): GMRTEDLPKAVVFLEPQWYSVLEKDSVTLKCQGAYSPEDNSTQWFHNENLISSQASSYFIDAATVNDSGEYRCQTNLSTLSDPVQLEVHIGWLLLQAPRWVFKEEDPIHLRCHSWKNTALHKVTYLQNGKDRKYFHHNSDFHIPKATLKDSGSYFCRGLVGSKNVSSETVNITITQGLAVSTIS
T4 sequence (P12314 16-288 limits assumed): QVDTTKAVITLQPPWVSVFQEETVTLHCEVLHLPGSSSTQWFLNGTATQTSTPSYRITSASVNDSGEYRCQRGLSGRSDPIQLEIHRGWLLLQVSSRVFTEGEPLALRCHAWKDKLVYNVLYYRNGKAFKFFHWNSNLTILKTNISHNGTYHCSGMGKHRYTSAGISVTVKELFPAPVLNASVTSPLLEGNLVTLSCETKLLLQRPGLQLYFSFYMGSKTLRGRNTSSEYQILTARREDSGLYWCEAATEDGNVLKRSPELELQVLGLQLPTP
T7 sequence (P08637 17-208 F176V): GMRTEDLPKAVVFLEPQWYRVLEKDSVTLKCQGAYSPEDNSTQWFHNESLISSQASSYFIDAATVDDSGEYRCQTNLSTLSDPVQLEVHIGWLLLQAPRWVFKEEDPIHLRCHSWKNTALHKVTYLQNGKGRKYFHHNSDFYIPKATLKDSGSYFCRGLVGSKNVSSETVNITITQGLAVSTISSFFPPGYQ
T6 sequence (P08637 17-208 limits assumed): as the sequence (P08637 17-208 F176V) above, with V160F counted along it
T9 sequence (P12314 16-374): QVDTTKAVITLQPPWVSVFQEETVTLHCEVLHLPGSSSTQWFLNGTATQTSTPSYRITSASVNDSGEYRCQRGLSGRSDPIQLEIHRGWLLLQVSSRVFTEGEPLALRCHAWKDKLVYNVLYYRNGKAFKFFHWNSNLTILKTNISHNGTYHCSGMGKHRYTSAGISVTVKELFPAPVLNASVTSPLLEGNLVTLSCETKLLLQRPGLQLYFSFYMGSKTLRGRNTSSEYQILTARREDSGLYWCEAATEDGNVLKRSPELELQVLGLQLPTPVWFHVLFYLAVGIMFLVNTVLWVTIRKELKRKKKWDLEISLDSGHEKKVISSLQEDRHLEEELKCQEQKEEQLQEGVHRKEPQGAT

| binding result [6] | Kd [7] [nM] | koff [7] [s⁻¹] | kon [7] [M⁻¹ s⁻¹] | Kd [8] [nM] | koff [8] [s⁻¹] | kon [8] [M⁻¹ s⁻¹] | Kd [9] [nM] | koff [9] [s⁻¹] | kon [9] [M⁻¹ s⁻¹] | binding result [11] | Kd [12] [nM] | koff [12] [s⁻¹] | kon [12] [M⁻¹ s⁻¹] | binding result [10] | Binder | other results |
| --- | --- | --- | --- | --- | --- | --- | --- | --- | --- | --- | --- | --- | --- | --- | --- | --- |
|  |  |  |  |  |  |  |  |  |  |  |  |  |  |  | anti-CD137 IgG4 with Fc variant G4m28 (antibody, copies: 2 + 2) heavy: EVQLVQSGAEVKKPGESLRISCKGSGYSFSTYWISWVRQMPGKGLEWMGKIYPGDSYTNYSPSFQGQVTISADKSISTAYLQWSSLKASDTAMYYCARGYGIFDYWGQGTLVTVSSASTKGPSVFPLAPCSRSTSESTAALGCLVKDYFPEPVTVSWNSGALTSGVHTFPAVLQSSGLYSLSSVVTVPSSSLGTKTYTCNVDHKPSNTKVDKRVESKYGPPCPPCPAPEFLGPSVFLFPPKPKDTLMISRTPEVTCVVVDVSQEDPEVQFNWYVDGVEVHNAKTKPREEQFNSTYRVVSVLTVLHQDWLNGKEYKCKVSNKGFPSSIEKTISKAKGQPREPQVYTLPPSQEEMTKNQVSLTCLVKGFYPSDIAVEWESNGQPENNYKTTPPVLDSDGSFFLYSRLTVDKSRWQEGNVFSCSVMHEALHNHYTQKSLSLSLGK light: SYELTQPPSVSVSPGQTASITCSGDNIGDQYAHWYQQKPGQSPVLVIYQDKNRPSGIPERFSGSNSGNTATLTISGTQAMDEADYYCATYTGFGSLAVFGGGTKLTVLGQPKAAPSVTLFPPSSEELQANKATLVCLISDFYPGAVTVAWKADSSPVKAGVETTTPSKQSNNKYAASSYLSLTPEQWKSHRSYSCQVTHEGSTVEKTVAPTECS | Kd [1]: 56 nM; koff [1]: 0.027 s⁻¹; kon [1]: 490000 M⁻¹ s⁻¹; Kd [2]: 1800 nM; koff [2]: 0.055 s⁻¹; kon [2]: 31000 M⁻¹ s⁻¹; Kd [3]: 180 nM; koff [3]: 0.034 s⁻¹; kon [3]: 190000 M⁻¹ s⁻¹; Kd [4]: 20 nM; koff [4]: 0.012 s⁻¹; kon [4]: 580000 M⁻¹ s⁻¹; binding result [5]: binds |
| no binding (tested: 300 nM) | 829 | 0.0165 | 19900 | 517 | 0.0915 | 176000 | 917 | 0.013 | 14300 | no binding (tested: 300 nM) | 57.6 | 0.0122 | 212000 |  | anti-CD137 IgG2 with Fc variant G2m20 (antibody, copies: 2 + 2) heavy: EVQLVQSGAEVKKPGESLRISCKGSGYSFSTYWISWVRQMPGKGLEWMGKIYPGDSYTNYSPSFQGQVTISADKSISTAYLQWSSLKASDTAMYYCARGYGIFDYWGQGTLVTVSSASTKGPSVFPLAPCSRSTSESTAALGCLVKDYFPEPVTVSWNSGALTSGVHTFPAVLQSSGLYSLSSVVTVPSSNFGTQTYTCNVDHKPSNTKVDKTVERKCCVECPPCPAPPVAPSVFLFPPKPKDTLMISRTPEVTCVVVDVSHEDPEVQFNWYVDGVEVHNAKTKPREEQFNSTFRVVSVLTVVHQDWLNGKEYKCKVSNKGLPAPIEKTISKTKGQPREPQVYTLPPSREEMTKNQVSLTCLVKGFYPSDIAVEWESNGQPENNYKTTPPMLDSDGSFFLYSKLTVDKSRWQQGNVFSCSVMHEALHNHYTQKSLSLSPGK light: SYELTQPPSVSVSPGQTASITCSGDNIGDQYAHWYQQKPGQSPVLVIYQDKNRPSGIPERFSGSNSGNTATLTISGTQAMDEADYYCATYTGFGSLAVFGGGTKLTVLGQPKAAPSVTLFPPSSEELQANKATLVCLISDFYPGAVTVAWKADSSPVKAGVETTTPSKQSNNKYAASSYLSLTPEQWKSHRSYSCQVTHEGSTVEKTVAPTECS | Kd [10]: 1260 nM; koff [10]: 0.0149 s⁻¹; kon [10]: 11800 M⁻¹ s⁻¹ |
| no binding (tested: 300 nM) | 336 | 0.0836 | 249000 | 240 | 0.0387 | 162000 |  |  |  | no binding (tested: 300 nM) | 35.4 | 0.00941 | 265000 | no binding (tested: 300 nM) | anti-CD137 IgG2 with Fc variant G2m19 (antibody, copies: 2 + 2) heavy: EVQLVQSGAEVKKPGESLRISCKGSGYSFSTYWISWVRQMPGKGLEWMGKIYPGDSYTNYSPSFQGQVTISADKSISTAYLQWSSLKASDTAMYYCARGYGIFDYWGQGTLVTVSSASTKGPSVFPLAPCSRSTSESTAALGCLVKDYFPEPVTVSWNSGALTSGVHTFPAVLQSSGLYSLSSVVTVPSSNFGTQTYTCNVDHKPSNTKVDKTVERKCCVECPPCPAPPVASVFLFPPKPKDTLMISRTPEVTCVVVDVEHEDPEVQFNWYVDGVEVHNAKTKPREEQFNSTFRVVSVLTVVHQDWLNGKEYKCKVSNKGFPAPIEKTISKTKGQPREPQVYTLPPSREEMTKNQVSLTCLVKGFYPSDIAVEWESNGQPENNYKTTPPMLDSDGSFFLYSKLTVDKSRWQQGNVFSCSVMHEALHNHYTQKSLSLSPGK light: SYELTQPPSVSVSPGQTASITCSGDNIGDQYAHWYQQKPGQSPVLVIYQDKNRPSGIPERFSGSNSGNTATLTISGTQAMDEADYYCATYTGFGSLAVFGGGTKLTVLGQPKAAPSVTLFPPSSEELQANKATLVCLISDFYPGAVTVAWKADSSPVKAGVETTTPSKQSNNKYAASSYLSLTPEQWKSHRSYSCQVTHEGSTVEKTVAPTECS | binding result [9]: no binding (tested: 300 nM); binding result [13]: no binding (tested: 10 ug/mL) |
|  | 191 | 0.0898 | 470000 | 256 | 0.0464 | 181000 | 527 | 0.257 | 487000 | no binding (tested: 300 nM) | 26.4 | 0.0195 | 737000 | no binding (tested: 300 nM) | anti-CD137 IgG2 with Fc variant G2m28 (antibody, also called Gbn28; copies: 2 + 2) heavy: EVQLVQSGAEVKKPGESLRISCKGSGYSFSTYWISWVRQMPGKGLEWMGKIYPGDSYTNYSPSFQGQVTISADKSISTAYLQWSSLKASDTAMYYCARGYGIFDYWGQGTLVTVSSASTKGPSVFPLAPCSRSTSESTAALGCLVKDYFPEPVTVSWNSGALTSGVHTFPAVLQSSGLYSLSSVVTVPSSNFGTQTYTCNVDHKPSNTKVDKTVERKCCVECPPCPAPPVAPSVFLFPPKPKDTLMISRTPEVTCVVVDVEHEDPEVQFNWYVDGVEVHNAKTKPREEQFNSTFRVVSVLTVVHQDWLNGKEYKCKVSNKGLPAPIEKTISKTKGQPREPQVYTLPPSREEMTKNQVSLTCLVKGFYPSDIAVEWESNGQPENNYKTTPPMLDSDGSFFLYSKLTVDKSRWQQGNVFSCSVMHEALHNHYTQKSLSLSPGK light: SYELTQPPSVSVSPGQTASITCSGDNIGDQYAHWYQQKPGQSPVLVIYQDKNRPSGIPERFSGSNSGNTATLTISGTQAMDEADYYCATYTGFGSLAVFGGGTKLTVLGQPKAAPSVTLFPPSSEELQANKATLVCLISDFYPGAVTVAWKADSSPVKAGVETTTPSKQSNNKYAASSYLSLTPEQWKSHRSYSCQVTHEGSTVEKTVAPTECS | Kd [6]: 66.1 nM; koff [6]: 0.098 s⁻¹; kon [6]: 1.49e+06 M⁻¹ s⁻¹ |
